Laboratory results taken from article PMC8476856.

Biological target: recombinant human α1A/βIII tubulin (human) (UniProt Q71U36)
Test: in vitro microtubule dynamics assay

With “recombinant human α1A/βIII tubulin (from UniProt Q71U36 1-451; Q13509 1-450) (complex)” the critical concentration was 0.94 µM, the koff was 3.2 s⁻¹ and the kon was 3.48e+06 M⁻¹ s⁻¹.
